In PMC9169696 (ACS applied materials & interfaces, 2021):
Square brackets hold non-standard residues; d marks the D form. Ends that are not written are not given here.

B1: fluorescein-labeled VN (natural protein, human, UniProt P04004 20-478, looked up)
chain: DQESCKGRCTEGFNVDKKCQCDELCSYYQSCCTDYTAECKPQVTRGDVFTMPEDEYTVYDDGEEKNNATVHEQVGGPSLTSDLQAQSKGNPEQTPVLKPEEEAPAPEVGASKPEGIDSRPETLHPGRPQPPAEEELCSGKPFDAFTDLKNGSLFAFRGQYCYELDEKAVRPGYPKLIRDVWGIEGPIDAAFTRINCQGKTYLFKGSQYWRFEDGVLDPDYPRNISDGFDGIPDNVDAALALPAHSYSGRERVYFFKGKQYWEYQFQHQPSQEECEGSSLSAVFEHFAMMQRDSWEDIFELLFWGRTSAGTRQPQFISRDWHGVPGQVDAAMAGRIYISGMAPRPSLAKKQRFRHRNRKGYRSQRGHSRGRNQNSRRPSRATWLSLFSSEESNLGANNYDDYRMDWLVPATCEPIQSVFFFSGDKYYRVNLRTRRVDTVDPPYPRSIAQYWLGCPAPGHL
modifications: fluorescein (from NHS-fluorescein; sites not stated)
B2: fluorescein-labeled Fet-A (natural protein, bovine, UniProt P12763 19-359, looked up)
chain: IPLDPVAGYKEPACDDPDTEQAALAAVDYINKHLPRGYKHTLNQIDSVKVWPRRPTGEVYDIEIDTLETTCHVLDPTPLANCSVRQQTQHAVEGDCDIHVLKQDGQFSVLFTKCDSSPDSAEDVRKLCPDCPLLAPLNDSRVVHAVEVALATFNAESNGSYLQLVEISRAQFVPLPVSVSVEFAVAATDCIAKEVVDPTKCNLLAEKQYGFCKGSVIQKALGGEDVRVTCTLFQTQPVIPQPQPDGAEAEAPSAVPDAAGPTPSAAGPPVASVVVGPSVVAVPLPLHRAHYDLRHTFSGVASVESSSGEAFHVGKTPIVGQPSIPGGPVRLCPGRIRYFKI
modifications: fluorescein (from NHS-fluorescein; sites not stated)
B3: HLT2 peptide gel (peptide)
peptide: VLTKVKTKV[code p]PTKVEVKVLV-NH2

How the values were obtained:
HLT2 peptide gel = target: B3; test: depletion from the supernatant
[1] = target: BSA fluorescein isothiocyanate conjugate (bovine, UniProt P02769 25-607, fluorescein isothiocyanate conjugate (sites not given)); test: light absorption and fluorescence imaging of the gel
BSA fluorescein isothiocyanate conjugate, sequence (P02769 25-607): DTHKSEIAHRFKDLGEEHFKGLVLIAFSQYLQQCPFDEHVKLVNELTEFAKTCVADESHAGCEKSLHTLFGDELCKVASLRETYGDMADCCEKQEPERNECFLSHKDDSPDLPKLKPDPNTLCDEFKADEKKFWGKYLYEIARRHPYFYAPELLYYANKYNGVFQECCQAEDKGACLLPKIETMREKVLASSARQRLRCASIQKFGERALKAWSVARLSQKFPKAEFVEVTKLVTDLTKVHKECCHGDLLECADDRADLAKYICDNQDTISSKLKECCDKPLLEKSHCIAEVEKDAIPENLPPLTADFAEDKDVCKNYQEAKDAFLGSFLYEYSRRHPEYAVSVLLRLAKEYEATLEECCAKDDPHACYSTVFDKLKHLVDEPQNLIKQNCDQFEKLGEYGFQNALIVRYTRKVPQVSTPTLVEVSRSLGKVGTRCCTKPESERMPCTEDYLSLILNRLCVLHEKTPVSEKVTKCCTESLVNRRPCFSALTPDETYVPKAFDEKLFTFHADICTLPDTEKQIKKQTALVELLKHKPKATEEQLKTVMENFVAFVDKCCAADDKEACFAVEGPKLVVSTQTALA

bovine serum albumin = bovine serum albumin (bovine, UniProt P02769 25-607); test: affinity purification with mass spectrometry
bovine serum albumin, sequence (P02769 25-607): as above

Binder	concentration adsorbed with respect to total gel volume (HLT2 peptide gel) [mg/mL]	percent of the added protein adsorbed (HLT2 peptide gel) [%]	binding result [1]	binding result (bovine serum albumin)
B1	0.1	87	–	–
B2	6.8	85	–	–
B3	–	–	binds	binds
